T1: ARHGEF11, O15085
T1 sequence (O15085 42-136, limits assumed, looked up): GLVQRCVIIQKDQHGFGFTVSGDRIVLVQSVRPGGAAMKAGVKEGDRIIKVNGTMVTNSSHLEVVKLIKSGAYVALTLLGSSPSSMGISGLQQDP

T2: HTRA4, P83105
T2 sequence (P83105 378-476, limits assumed, looked up): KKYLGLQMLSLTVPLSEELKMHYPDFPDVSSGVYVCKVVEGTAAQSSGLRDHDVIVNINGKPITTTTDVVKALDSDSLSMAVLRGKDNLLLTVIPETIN

T3: NHERF3_4, Q5T2W1
T3 sequence (Q5T2W1 373-468, limits assumed, looked up): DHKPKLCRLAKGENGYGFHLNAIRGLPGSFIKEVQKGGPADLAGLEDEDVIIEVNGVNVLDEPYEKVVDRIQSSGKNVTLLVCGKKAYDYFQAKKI

T4: LNX2_3, Q8N448
T4 sequence (Q8N448 463-564, limits assumed, looked up): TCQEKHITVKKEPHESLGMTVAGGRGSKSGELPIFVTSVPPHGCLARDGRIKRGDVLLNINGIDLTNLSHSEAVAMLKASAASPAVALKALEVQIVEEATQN

T5: LIN7C, Q9NUP9
T5 sequence (Q9NUP9 88-185, limits assumed, looked up): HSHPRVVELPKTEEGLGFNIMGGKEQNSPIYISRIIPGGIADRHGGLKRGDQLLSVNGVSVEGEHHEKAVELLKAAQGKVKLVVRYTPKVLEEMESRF

T6: GRIP1_4, Q9Y3R0
T6 sequence (Q9Y3R0 467-571, limits assumed, looked up): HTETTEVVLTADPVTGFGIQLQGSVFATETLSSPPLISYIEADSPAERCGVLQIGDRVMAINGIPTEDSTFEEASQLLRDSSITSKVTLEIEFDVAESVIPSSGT

T7: PDZD2_2, O15018
T7 sequence (O15018 329-429, limits assumed, looked up): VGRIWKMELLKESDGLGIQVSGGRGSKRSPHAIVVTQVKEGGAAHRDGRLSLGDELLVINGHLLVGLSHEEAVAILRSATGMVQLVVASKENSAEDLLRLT

T8: SNTG2, Q9NY99
T8 sequence (Q9NY99 68-166, limits assumed, looked up): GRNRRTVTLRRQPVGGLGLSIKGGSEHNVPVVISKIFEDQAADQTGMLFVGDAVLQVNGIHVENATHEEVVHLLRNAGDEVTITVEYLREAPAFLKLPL

T9: APBA3_1, O96018
T9 sequence (O96018 389-490, limits assumed, looked up): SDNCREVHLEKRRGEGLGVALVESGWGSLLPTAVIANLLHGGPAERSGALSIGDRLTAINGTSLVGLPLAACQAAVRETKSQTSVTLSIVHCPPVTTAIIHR

T10: TIAM2, Q8IVF5
T10 sequence (Q8IVF5 885-986, limits assumed, looked up): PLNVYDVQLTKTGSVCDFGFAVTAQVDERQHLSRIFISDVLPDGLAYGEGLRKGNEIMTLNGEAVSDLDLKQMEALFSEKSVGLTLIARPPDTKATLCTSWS

T11: PDZRN3_1, Q9UPQ7
T11 sequence (Q9UPQ7 244-349, limits assumed, looked up): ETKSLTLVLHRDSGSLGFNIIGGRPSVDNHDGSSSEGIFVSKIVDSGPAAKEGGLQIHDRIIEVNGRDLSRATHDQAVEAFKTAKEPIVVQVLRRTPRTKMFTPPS

T12: SNTB1, Q13884
T12 sequence (Q13884 107-205, limits assumed, looked up): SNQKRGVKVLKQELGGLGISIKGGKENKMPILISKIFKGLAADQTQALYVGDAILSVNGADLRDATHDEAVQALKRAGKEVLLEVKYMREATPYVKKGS


Key:
Assay in all cases: holdup assay
Parameters in all cases: key: below the threshold = too weak to quantify, mostly under pKd 3.1 to 4
Details in all cases: plain residues with an end cap or a label only (N-terminal biotin on a linker: ado-ado)
ARHGEF11, O15085 = molecular target: T1, ARHGEF11, O15085
HTRA4, P83105 = molecular target: T2, HTRA4, P83105
MAGI2_4, Q86UL8 = molecular target: MAGI2_4, Q86UL8
Sequence of MAGI2_4, Q86UL8 (Q86UL8 772-865): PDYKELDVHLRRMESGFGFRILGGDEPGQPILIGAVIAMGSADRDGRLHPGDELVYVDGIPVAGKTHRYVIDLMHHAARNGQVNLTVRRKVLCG

LNX1_2, Q8TBB1 = molecular target: LNX1_2, Q8TBB1
Sequence of LNX1_2, Q8TBB1 (Q8TBB1 371-470): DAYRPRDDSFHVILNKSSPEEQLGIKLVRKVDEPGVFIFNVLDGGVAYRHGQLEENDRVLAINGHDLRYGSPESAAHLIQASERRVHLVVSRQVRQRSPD

AHNAK1, Q09666 = molecular target: AHNAK1, Q09666
Sequence of AHNAK1, Q09666 (Q09666 4-100): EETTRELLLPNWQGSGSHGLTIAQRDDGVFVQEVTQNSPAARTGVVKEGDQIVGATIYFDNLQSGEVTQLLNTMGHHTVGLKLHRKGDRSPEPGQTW

FRMPD2_2, Q68DX3 = molecular target: FRMPD2_2, Q68DX3
Sequence of FRMPD2_2, Q68DX3 (Q68DX3 944-1038): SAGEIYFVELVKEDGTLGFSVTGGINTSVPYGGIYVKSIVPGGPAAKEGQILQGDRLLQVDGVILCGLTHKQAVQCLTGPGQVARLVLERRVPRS

SNX27, Q96L92 = molecular target: SNX27, Q96L92
NHERF3_4, Q5T2W1 = molecular target: T3, NHERF3_4, Q5T2W1
LNX2_3, Q8N448 = molecular target: T4, LNX2_3, Q8N448
Inadl_3, Q8NI35 = molecular target: Inadl_3, Q8NI35
Sequence of Inadl_3, Q8NI35 (Q8NI35 359-469): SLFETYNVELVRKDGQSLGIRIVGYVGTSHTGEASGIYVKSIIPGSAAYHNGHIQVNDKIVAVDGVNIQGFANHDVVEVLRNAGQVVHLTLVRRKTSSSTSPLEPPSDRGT

LNX1_3, Q8TBB1 = molecular target: LNX1_3, Q8TBB1
Sequence of LNX1_3, Q8TBB1 (Q8TBB1 500-596): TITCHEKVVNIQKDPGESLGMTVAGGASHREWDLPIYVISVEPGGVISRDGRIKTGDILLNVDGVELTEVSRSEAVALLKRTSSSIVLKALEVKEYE

LIN7C, Q9NUP9 = molecular target: T5, LIN7C, Q9NUP9
Inadl_6, Q8NI35 = molecular target: Inadl_6, Q8NI35
Sequence of Inadl_6, Q8NI35 (Q8NI35 1058-1167): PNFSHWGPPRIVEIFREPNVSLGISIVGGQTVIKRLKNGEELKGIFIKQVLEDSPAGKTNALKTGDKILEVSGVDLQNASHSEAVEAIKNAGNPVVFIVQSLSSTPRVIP

GRIP1_4, Q9Y3R0 = molecular target: T6, GRIP1_4, Q9Y3R0
TJP1_3, Q07157 = molecular target: TJP1_3, Q07157
Sequence of TJP1_3, Q07157 (Q07157 416-512): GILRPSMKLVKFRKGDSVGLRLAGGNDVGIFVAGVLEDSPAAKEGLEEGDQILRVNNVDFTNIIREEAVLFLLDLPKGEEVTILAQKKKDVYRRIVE

PDZD2_2, O15018 = molecular target: T7, PDZD2_2, O15018
IL16_4, Q14005 = molecular target: IL16_4, Q14005
Sequence of IL16_4, Q14005 (Q14005 1229-1329): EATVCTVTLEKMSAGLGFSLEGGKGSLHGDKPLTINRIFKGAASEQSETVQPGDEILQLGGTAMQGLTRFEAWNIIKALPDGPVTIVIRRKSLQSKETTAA

DLG2_2, Q15700 = molecular target: DLG2_2, Q15700
Sequence of DLG2_2, Q15700 (Q15700 189-283): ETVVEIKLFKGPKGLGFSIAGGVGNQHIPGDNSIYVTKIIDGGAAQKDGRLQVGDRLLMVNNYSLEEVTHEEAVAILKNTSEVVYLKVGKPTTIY

LAP2, Q96RT1 = molecular target: LAP2, Q96RT1
Sequence of LAP2, Q96RT1 (Q96RT1 other isoform, or with tags, fused parts or gaps): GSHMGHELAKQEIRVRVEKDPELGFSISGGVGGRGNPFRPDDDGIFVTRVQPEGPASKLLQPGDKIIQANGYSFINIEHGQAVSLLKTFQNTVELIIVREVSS

SNTG2, Q9NY99 = molecular target: T8, SNTG2, Q9NY99
DLG1_3, Q12959 = molecular target: DLG1_3, Q12959
Sequence of DLG1_3, Q12959 (Q12959 457-571): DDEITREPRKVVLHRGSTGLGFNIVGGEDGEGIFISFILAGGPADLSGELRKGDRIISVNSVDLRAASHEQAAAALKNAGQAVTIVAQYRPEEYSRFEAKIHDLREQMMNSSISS

APBA3_1, O96018 = molecular target: T9, APBA3_1, O96018
TIAM2, Q8IVF5 = molecular target: T10, TIAM2, Q8IVF5
SCRIB_2, Q14160 = molecular target: SCRIB_2, Q14160
Sequence of SCRIB_2, Q14160 (Q14160 857-960): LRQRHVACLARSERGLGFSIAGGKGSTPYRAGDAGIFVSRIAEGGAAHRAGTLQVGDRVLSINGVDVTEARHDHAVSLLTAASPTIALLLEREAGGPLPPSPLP

PDZRN3_1, Q9UPQ7 = molecular target: T11, PDZRN3_1, Q9UPQ7
SNTB1, Q13884 = molecular target: T12, SNTB1, Q13884

| Binder | pKd (ARHGEF11, O15085) | pKd (HTRA4, P83105) | pKd (MAGI2_4, Q86UL8) | pKd (LNX1_2, Q8TBB1) | pKd (AHNAK1, Q09666) | pKd (FRMPD2_2, Q68DX3) | pKd (SNX27, Q96L92) | pKd (NHERF3_4, Q5T2W1) | pKd (LNX2_3, Q8N448) | pKd (Inadl_3, Q8NI35) | pKd (LNX1_3, Q8TBB1) | pKd (LIN7C, Q9NUP9) | pKd (Inadl_6, Q8NI35) | pKd (GRIP1_4, Q9Y3R0) | pKd (TJP1_3, Q07157) | pKd (PDZD2_2, O15018) | pKd (IL16_4, Q14005) | pKd (DLG2_2, Q15700) | pKd (LAP2, Q96RT1) | pKd (SNTG2, Q9NY99) | other results |
| --- | --- | --- | --- | --- | --- | --- | --- | --- | --- | --- | --- | --- | --- | --- | --- | --- | --- | --- | --- | --- | --- |
| VISSDDLTEL [CAPN6, Q9Y6Q1] | 4.45 | 3.92 | below the threshold | below the threshold | below the threshold | below the threshold | 4.17 | below the threshold | below the threshold | below the threshold | below the threshold | below the threshold | below the threshold | below the threshold | below the threshold | 4.39 | 3.7 | below the threshold | below the threshold | below the threshold | pKd (DLG1_3, Q12959): below the threshold; pKd (APBA3_1, O96018): below the threshold; pKd (TIAM2, Q8IVF5): 3.96; pKd (SCRIB_2, Q14160): below the threshold; pKd (PDZRN3_1, Q9UPQ7): below the threshold; pKd (SNTB1, Q13884): below the threshold |
| RGKNRRQSIF [CDK18, Q07002] | below the threshold | below the threshold | below the threshold | below the threshold | below the threshold | below the threshold | below the threshold | below the threshold | below the threshold | below the threshold | below the threshold | 3.5 | below the threshold | below the threshold | below the threshold | below the threshold | below the threshold | 3.5 | 3.74 | below the threshold | pKd (DLG1_3, Q12959): 3.71; pKd (APBA3_1, O96018): below the threshold; pKd (TIAM2, Q8IVF5): below the threshold; pKd (SCRIB_2, Q14160): below the threshold; pKd (PDZRN3_1, Q9UPQ7): below the threshold; pKd (SNTB1, Q13884): below the threshold |
| THHRKIHTRV [ZNF599, Q96NL3] | 4.25 | below the threshold | below the threshold | 3.5 | below the threshold | 3.52 | 4.31 | 3.55 | 3.51 | below the threshold | below the threshold | below the threshold | below the threshold | below the threshold | below the threshold | below the threshold | below the threshold | 5.38 | below the threshold | 4.13 | pKd (DLG1_3, Q12959): 4.15; pKd (APBA3_1, O96018): below the threshold; pKd (TIAM2, Q8IVF5): 3.57; pKd (SCRIB_2, Q14160): 4.15; pKd (PDZRN3_1, Q9UPQ7): 3.75; pKd (SNTB1, Q13884): 4.36 |
| AKADAQESRL [PLCB2, Q00722] | 3.66 | 3.85 | below the threshold | below the threshold | below the threshold | below the threshold | 5.21 | below the threshold | below the threshold | below the threshold | below the threshold | 4.28 | 3.48 | below the threshold | below the threshold | below the threshold | 3.61 | below the threshold | below the threshold | 4.81 | pKd (DLG1_3, Q12959): below the threshold; pKd (APBA3_1, O96018): below the threshold; pKd (TIAM2, Q8IVF5): below the threshold; pKd (SCRIB_2, Q14160): below the threshold; pKd (PDZRN3_1, Q9UPQ7): 4.42; pKd (SNTB1, Q13884): 4.43 |
